The DeepSol protein solubility set

Test: soluble on expression in E. coli; label from the status in PepcDB or PDB records

Sequence	soluble on expression in E. coli
MRGSHHHHHHTDPALRALVSSNVTMQFGSKPLFENISVKFGGGNRYGLIGANGSGKSTFMKILGGDLEPTLGNVSLDPNERIGKLRQDQFAFEEFTVLDTVIMGHKELWEVKQERDRIYALPEMSEEDGYKVADLEVKYGEMDGYSAEARAGELLLGVGIPVEQHYGPMSEVAPGWKLRVLLAQALFADPDILLLDEPTNNLDIDTIRWLEQVLNERDSTMIIISHDRHFLNMVCTHMADLDYGELRVYPGNYDEYMTAATQARERLLADNAKKKAQIAELQSFVSRFSANASKSRQATSRARQIDKIKLEEVKASSRQNPFIRFEQDKKLFRNALEVEGLTKGFDNGPLFKNLNLLLEVGEKLAVLGTNGVGKSTLLKTLVGDLQPDSGTVKWSENARIGYYAQDHEYEFENDLTVFEWMSQWKQEGDDEQAVRSILGRLLFSQDDIKKPAKVLSGGEKGRMLFGKLMMQKPNILIMDEPTNHLDMESIESLNMALELYQGTLIFVSHDREFVSSLATRILEITPERVIDFSGNYEDYLRSKGIEGLCGR	soluble
MGSDKIHHHHHHMSNQLENAKNLYLRGIRDGEIKEVHENYMGASYTQHSTGVPDEKEGFAAFFEDFFKRNPKREINIVRAIEDGNFVFVHVHQKLNDGEAEWVTADIFRSDENGRIVEHWDVIDAYPKTIDQTDPIYADFELTDLDKTEDNKKIVRRFLVDVFQNGEIDKFDDYVAANLIQHNQEIAQGGAAYKDYLVDKAVNYDFVFKVMGQGDYVVAYSKVWIAGQDYAHFDIYRLKDGKIVEHWDNKEVMPDKKDLTNLGKF	not soluble
SIEFSTAITRQIVLDTETTGMNQIGAHYEGHKIIEIGAVEVVNRRLTGNNFHVYLKPDRLVDPEAFGVHGIADEFLLDKPTFAEVADEFMDYIRGAELVIHNAAFDIGFMDYEFSLLKRDIPKTNTFCKVTDSLAVARKMFPGKRNSLDALCARYEIDNSKRTLHGALLDAQILAEVYLAMTGGQTSMATRESG	soluble
VAVRPVLAVGSYLPHAPWPWGVIDQAARVLLPASTTVRAAVSLPNASAQLVRASGVLPADGTRRAVLYLHGGAFLTCGANSHGRLVELLSKFADSPVLVVDYRLIPKHSIGMALDDCHDGYRWLRLLGYEPEQIVLAGDSAGGYLALALAQRLQEVGEEPAALVAISPLLQLAKEHKQAHPNIKTDAMFPARAFDALDALVASAAARNQVDGEPEELYEPLEHITPGLPRTLIHVSGSEVLLHDAQLAAAKLAAAGVPAEVRVWPGQVHDFQVAASMLPEAIRSLRQIGEYIREATG	not soluble
MEEWKTSFREIYGRSPTAGDISVAPNHIKAILQSEKKENDEKIEEKQAKRGVKRKNFEMKMMEGEQFSPIKKRVNLNQLGSENDKNPIPLRSSPRKKMIAIEVLPEKSMVSPKKKPVGSVPFEFDDFSPVKSYSASTSKSAVKSTLTPIKSPTKRAYQRPLRDLKMLLLPTPEKGQEVEGPVEEFDDETNEDVAKARSYNPAARKLGGSSKSDQNFQKINLRKKQFVRGKVTAEQKRKLKRKQMFKKKY	soluble
MAHHHHHHSLDASTLFKKVKVKRVLGSLEQQIDDITTDSRTAREGSIFVASVGYTVDSHKFCQNVADQGCKLVVVNKEQSLPANVTQVVVPDTLRVASILAHTLYDYPSHQLVTFGVTGTNGKTSIATMIHLIQRKLQKNSAYLGTNGFQINETKTKGANTTPETVSLTKKIKEAVDAGAESMTLEVSSHGLVLGRLRGVEFDVAIFSNLTQDHLDFHGTMEAYGHAKSLLFSQLGEDLSKEKYVVLNNDDSFSEYLRTVTPYEVFSYGIDEEAQFMAKNIQESLQGVSFDFVTPFGTYPVKSPYVGKFNISNIMAAMIAVWSKGTSLETIIKAVENLEPVEGRLEVLDPSLPIDLIIDYAHTADGMNKLIDAVQPFVKQKLIFLVGMAGERDLTKTPEMGRVACRADYVIFTPDNPANDDPKMLKAELAKGATHQNYIEFDDRAEGIKHAIDIAEPGDTVVLASKGREPYQIMPGHIKVPHRDDLIGLEAAYKKFGGGPVDQEG	soluble
SQTREDSVYLAKLAEQAERYEEMVENMKAVASSGQELSVEERNLLSVAYKNVIGARRASWRIVSSIEQKEESKEKSEHQVELIRSYRSKIETELTKISDDILSVLDSHLIPSATTGESKVFYYKMKGDYHRYLAEFSSGDAREKATNSSLEAYKTASEIATTELPPTHPIRLGLALNFSVFYYEIQNSPDKACHLAKQAFDDAIAELDTLSEESYKDSTLIMQLLRDNLTLWTSDISESGQEDQQQQQQQQQQQQQQQQQAPAEQTQGEPTK	soluble
NKNFWLGVRGNFTYATGKYEYVEEPYRPYPWLSHIGKRIEQSYGLVAERLFIDEEDIANSPVQTYGEYMPGDIKYKDINNDGIINDEDIVPIGFAKSPEIVYGFGVSMGYKNFDISCFFQGAARSSFFINSKATNPFMQMDLGGNNLNGMMQAYADDYWSESNRNIYATFPRLSTTDIANNNRNSTWWLRDGSYLRLKSVEIGYTLPKRLTSHLGMSNLRIYASGLNLFAWNRFKLWDVEQGNDGMQYPIQAVYNFGINLSF	not soluble
MFAGCATYAGLNFDQLFGPQLVRERTASVETPQADFFQREVKPIVDNRCVVCHACYDAPCQLKLSSVEGIDRGASKALVYEGTRLTAAAPTRLFEDAETTQEWRDAGFHPVLNERDQSMAANLEAGLIARLLQQKERHPLPDQVQLEGFDFSIDREQTCPTIEEYEQYEKDNPNWGMPFGMPNLTNSEYHTLMTWLENGAIMNMHTPISDQEQAKINQYETLLNHSDLKNQLMSRYIYEHLFLSHLYFSELSEKPRFFTLVRSATPPGQPVKRISTRRPYDDPGVERVYYRIIPEQGTIVDKTHMPFALNKQRISNWKKWFIEADYSVTQLPSYEPEVAANPMTAFIDMPVKSRFKFMLDNAQNTIMAYIKGPVCRGQLALNVINDRFWVFFLDPDKADIPEVNEFYRSQADNLKLPAEQESNTLPVTNWVKYARQQARYLEAKSEFTNNWFKHGENLSTDVIWDGNGTNPNAALTVFRHFDSASVVQGLVGEQPKTVWILDYALLERIHYLLVAGFDVYGNFGHQLMTRMFMDFLRLEGESNFVTLLPADMRHQLQSSWYQDQSPQLSDFLQRNVKPFNQPTSVVYKTDDPKTELLNMMRKRLSPVLLPRYEITDTALSDKTEKELKRIGQVRGEGLQTVPQITMLMVRSKSGKDELFTLLHNNAHTNISSLFDEESNRDFANDDMTIVRGVVGSYPAAFFSLKENQVKEFVDQFSAIQNEADYVKLLDSFAIRRSSEKFWPFSDRIHNWYRTNQPIEFGLLDYNRFENR	not soluble
MLKELEVNGKRFFLAPESNFWAIGEREEVERFYRERKDALLEEMQRYRFEVDIRTAYINPTESCNRNCPYCYIPAEIRERGTKMSYEKLEEILTVLAENGVERVIFHGAEPLMVKDEIFRAMEDFDFKYGIQTNATLLEEEDAELLMKKGASVGISLDSPYKETNDYLRGKGHYDAVMRALDFFDGYRSLNIIMTVNKHNFQHLPAMVDFLAGKVSVMLANPVRGTSPGGRELRPPEGFEDYYIKAIDRAIENTKSGRRIVIGDFANILLGLVAPTSRVLQCDISPCGGGRRFFAVSADGIYPCGEFIGMEEFRANLSALSDWSSLIEKFEVVRKRTVEQIEECRNCEFRNLCGAPCPAEIYAESGTMLRKSPYCEFYKKLALKAMDVIARGDVRNVLKLERMKAIYRVEDF	not soluble
MKREILLERIDKLKQLMPWYVLEYYQSKLAVPYSFTTLYEYLKEYDRFFSWVLESGISNADKISDIPLSVLENMSKKDMESFILYLRERPLLNANTTKQGVSQTTINRTLSALSSLYKYLTEEVENDQGEPYFYRNVMKKVSTKKKKETLAARAENIKQKLFLGDETEGFLTYIDQEHPQQLSNRALSSFNKNKERDLAIIALLLASGVRLSEAVNLDLRDLNLKMMVIDVTRKGCKRDSVNVAAFAKPYLENYLAIRNQRYKTEKTDTALFLTLYRGVPNRIDASSVEKMVAKYSEDFKVRVTPHKLRHTLATRLYDATKSQVLVSHQLGHASTQVTDLYTHIVSDEQKNALDSL	not soluble
MSAISPFVAIRRDLHQIPELGFQELKTQQYLLRYIQSLPQERLQVRTWKTGIFVKVNGTSPRKTIGYRADMDGLPIREETGLPYRSKHEGHMHACGHDVHMSIALGVLTHFAHHPLEDDLLFVFQPAEEGPGGAKPMLESDIMREWKPDMIVALHIAPEYPVGTIATKEGLLFANTSELFIDLKGRGGHAAFPHLANDMVVAACALVTQLQSIVARNVDPLDSAVITIGKIAGGTVQNVIAEHARLEGTIRTLSTAAMQKVKRRIEAIVHGIEVAYECETSIDYGAMYHEVYNDPDLTAEFMKFAKAHGGVNVIRCKEAMTGEDFGYMLAEIPGFMFWLGVDSPYGLHHAKLAPNEEAIDRAIAFLIDYFSWKGNAE	not soluble
MGSDKIHHHHHHMFSQHSFDFLNSLAVNNDREWFKTNQQQYEDQVRTPALQFIEAMQGPILGLSPRFTAVAKKVGGSLMRPQRDSRFSKDKTPYKTNVGIQFKHFQAKDVHAPGFYVHIANDECFIAAGIWHPESKDLNAIRHCIDENPNAYQKALTQLSQAGFELTGDSLIRPPRGFDKHHPMIDELRRKDFIAIKPISSEQVCQADFIEFCTQEYQHTRALMAYLCFALDLDF	not soluble
HLPKPTLWAEPGSVITQGSPVTLRCQGGQETQEYRLYREKKTAPWITRIPQELVKKGQFPIPSITWEHAGRYRCYYGSDTAGRSESSDPLELVVTGAYIKPTLSAQPSPVVNSGGNVTLQCDSQVAFDGFILCKEGEDEHPQCLNSQPHARGSSRAIFSVGPVSPSRRWWYRCYAYDSNSPYEWSLPSDLLELLVLG	soluble
MSESFAQLFEESLKVLETRQGSIVSGTVVAIQKGFVLVDAGLKSESAIPVAEFLNAQGELEIQVGDTVNVALDAVEDGFGETKLSREKAVRHESWIELEKAYEEKATVIGLIGKVKGGFTVELNGVRAFLPGSLVDTRPAREADHLLGKELEFKVIKLDQKRNNVVVSRRAVIESENSQEREQVLENLVEGSEVKGVVKNLTEYGAFVDLGGVDGLLHITDMAWKRVKHPSEIVNVGDEVTVKVLKFDKDRTRVSLGLKQLGQDPWAAIAENHPVNSKLTGKVTNLTDYGCFVEILDGVEGLVHVSEMDWTNKNIHPSKVVSLGDTVEVMVLEIDEERRRISLGLKQCKANPWTQFADTHNKGDKVTGKIKSITDFGIFIGLEGGIDGLVHLSDISWSISGEEAVRQYKKGDEVSAVVLAVDAVKERISLGIKQLEEDPFNNFVAINKKGAVVSATVVEADAKGAKVELAGGVEGYIRSADLTSEVAVGDVVEAKYTGVDRKSRIVHLSVKAKDQAEEAAAVASVNNKQEDIVIPNAMAEAFKAAKGELEHHHHHH	not soluble
MGFDFLGFTVRQFPVGKYHSGKSSSGKLLGYKTLITPSKAKLKIHAQKIGKLIDEHKAVPQSDLIAHLNPVIRGWTNYYSCVVSKRIFNQADTTLFSQLKAWAEHRHPNKSSRWSCQKYWQTVGSDNWVFKPHNQKIRLLKHRETRLEHHHHHH	soluble
MGSDKIHHHHHHTEDTVIKVSVLRGPSVIAFADWLENPPIIDNKKVQVKVVDSPDLAQALLIKQETDIAVLPMINAANLYNKGIKIKLAGCPIWGTLYLVEKTPLKEPALYVFGNGTTPDILTRYYLGRQRLDYPLNYAFNTAGEITQGILAGKVNRAVLGEPFLSIALRKDSSLRITADLNHLTDNDTLGFAQTAVVYTPTMEKYRIAFEDALRASCQKAVRYPKETIHSLEEHGIFAQGALTPKSIERCKIYYLSAIEAKDAVMGFLRLIEQYEPKAVGGRLPDAGFIPEKQ	not soluble
SNAMKQIIDIENWERKENFNFFRHFQNPQLSITSEVECGGARQRAKAAGQSFFLHYLYAVLRAANEIPEFRYRIDPDGRVVLYDTIDMLSPIKIKENGKFFTTRFPYHNDFDTFYQEARLIIDAIPEDGDPYAAENEEVADGDYGLILLSATPDLYFTSITGTQEKRSGNNYPLLNAGKAIIREGRLVMPIAMTIHHGFIDGHHLSLFYKKVEDFLK	soluble
